# From the RNAGym collection of RNA variant scans (doi:10.1073/pnas.2313332121)
# B1: TPR t1 (parent)
# chain: GACCAAUCUGCCCUCAGAGCUCGAGAACAUCUUCGGAUGCAGAGGAGGCAGGCUUCGGUGGCGCGAUAGCGCCAACGUCCUCAACCUCCAAUGCAUCCCACCACAUGAUGAUGCCUGAAGAGCCUUGGUUUUUUG
# Variants of: B1
# Experiment: polymerase ribozyme fitness, log enrichment relative to wild type (log ratio); higher = more active; in vitro selection for triplet polymerase activity
# Summary of the method: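 A heterodimeric triplet polymerase ribozyme had each of its subunits mutagenized by PCR into a library, which was transcribed. One round of in vitro selection, done in triplicate, annealed each library with a biotinylated primer, its partner subunit and triplets, then incubated it frozen at −7 °C before gel excision of extended constructs, streptavidin-bead capture and RT-PCR. Fitness is the logarithm of genotype enrichment relative to wild-type enrichment, based on Illumina sequencing of inputs and outputs and inverse-variance-weighted replicate averages. A base-2 logarithm is used, and genotypes were kept only with ≥10 input reads and ≥1 read per output.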
row,Variant,polymerase ribozyme fitness (log ratio)
1,GACCAAUCUGCCCUCAGAGCUCGAGAACAUCUUCGGAAGCAGAGGAGGCAGGCUUCGGUGGCACGAUAGCGCCAACGUCCUCAACCUCCAAUGCAUCCCACCACAUGAUGAUGCCUGAAGAGCCUUGGUUUUUUG,-2.12
2,GACCAAUCUGCCCUCAGAGCUCGAGAACAUCUUCGGAUGCCGAGGAGGCAGGCUUCGGUGGCGCGAUAGCGCCAACGUCCUCAACCUCCAAUACAUCCCACCACAUGAUGAAGCCUGAAGAGCCUUGGUUUUUUG,-1.27
3,GACCAAUCUGCCCUCAGAGCUCGAUAACAUCUUCGGAUUCAGAUGAGGCAGGCUUCGGUGGCGCGAUAGCGCAAACGUCCUCAACCUCCAAUGCAUCCCACCACAUGAUGAUGCCUGAAGAGCCUUGGUUUUUUG,-6.92
4,GACCAAUCUGCCCUCAGAGCUCGAGAACAUCUUCGGAUGCAGAGGAGGCAGGCUUGGGUGGCGCGAUAGCGCCAACGUCCUCAACCUCCAAUGCAUCCCACCACAUGAUGAUGCCUGAAGAACCUUGGUUUUUUG,-1.46
5,GACCAAUCUGCCCUCAGAGCUCGAGAACAUCUUCGGAUGCAGAGGAGGCAGGCUUCGGUGGCGCGAUAGCGCCAACGUCCUCAACCUCCAUUGCAACCCACCACAUGAUGAUGCCUGAAGAGCCUUGGUUUUUUG,-2.42
6,GACCAAUCUGCCCUCAGAGCUCGAGAACAUCUUCGGAUGCAGAGGAGGCAGGCUUCGGUGGUGCGAUACCGCCAACGUCCUCAACCUCCAAUGCAUCCCACGACAUGAUGAUGCCUGAAGAGCCUUGGUGUUUUG,-7.34
7,GACCGAUCUGACCUCAGAGCUCGAGAACAUCUUCGGAUGCAGAGGAGGCAGGCUUCGGUGGCGCGAUAGCGCCAACGUCCCCAACCUCCAAUGCAUCCCACCACAUGAUGAUGCCUGAAGAGCCUUGGUUUUUUG,-1.86
8,GACCAAUUUGCCCUCAGAGCUCGAGAACAUCUUCGGAUGCAGAGGAGGCAGGCUUCGGUGACGCGAUAGCGCCAACGUCCUCAACCUCCAAUGCAUCCUACCACAUGAUGAUGCCUGAAGAGCCUUGGUUUUUUG,-2.24
9,GAUCAAUCUGACGUCAGAGCUCGAGAACAUCUUCGGAUGCAGAGGAGGCAGGCUUCGGUGGCGCGAUAGCGCCGACGUCCUCAACCUCCAAUGCAUCCCACCACAUGAUGAUGCCUGAAGAGCCUUGGUUUUUUG,-2.98
10,GACCAAUCUGCCCUCAGAGCUCGAGAACAUCUUCGGGUGCAGAGGAGGCAGGCUUCGGUGGCGCGAUAGCGCCAACGUCCUCAACCCCCAAUGCGUCCCUCCACAUGAUGAUGCCUGAAGAGCCUUGGUAUUUUG,-3.04
11,GACUAAUCUGCCCUCAGUGCUCGAGAACAUCUUCGGAUGCAGAGGAGGCAGGCUUCGGUGGCGCGAUAGCGCCAACGUCCUCAACCUCCAAUGCAUCCCACCACAUGAUGAUGCCUGAAGAGCCUUGGUUUUUUG,-2.35
12,GACCAAUCUGCCCUCAGAGCUCGAGGACAUCUUCGGAUGCAGAGGAGGCAGGCUUCGGUGGCGCGAUAGCGCCAACGUCCUAAACCUCCAAUGCAUCCCACCACAUGAUGAUACCUGAUCAGCCUUGGUUUUUUG,-3.14
13,GACCAAUCCGCCCUCAGAGCUCGAGAACAUCUUCGGAUGCAGAGGAGGCAGGCUUGGGUGGGGCGAUAGCGCCAACGUCCUCAACCUCCAAUGCAUCCCACCACAUGAUGAUGCCUGAAGAGCCUUGGUUUUUUG,-3.04
14,GACCAACCUGCCCUCAGAGCUCGAGAACAUCUUCGGAUGCAGAGGAGGCAGGGUUAGGUAGCGCGAUAGCGCCAACGUCCUCAACCUCCAAUGCAUCCCACCACAUGAUGGUGCCUGAAGAGCCUUGGUUUUUUG,0.682
15,GACCAAUCUGUCCUCAGAGCUCGAGAACAUCUUCGGAUGCAGAGGAGGCAGUCUUCGGUGGCGCGAUAGAGCCAACGUCCUCAACCUCCAAUGCAUCCCACCACAUGAUGAUGCCUGAAGAGCCUUGGUUUUUUG,-1.84
16,GACCAAUCUGCCCUCAGAGCUCGAGAACAUCUUCGGAUGCAAAGGAGGCAGGCUUGGGUGGCGUGAUAGCGCCAACGUCCUCAACCUCCAAUGCAUCCCACCACAUGAUGAUGCCUGAAGAACCUUGGUUUUUUG,-3.76
17,GCCCAAUAUGCCCUCAGAGCUCGAGAACAUCUUCGGAUGCAGAGGAGGCAGGCUUCGGUGGCGCGAUAGCGCCAACGUCCUCAACCUCCAAUGCAUCCCACCACAUGAUGAUGCCUGAAGAGCCUUGGUUAUUUG,-1.54
18,GACCAAUCUGCCCUAAGAGCUCGAGAACAUCUUCGGAUGCAGAGAAGGCAGGCUUCGGUGGCGCGAUAGCGCCAACGUCCUCAACCUCGAAUCCAUCCCACCACAUGAUGAUGCCUGAAGAGCCUUGGUUUUUUG,-4.59
19,GACCAAUUUGCCCUCUGAGCUCGAGAACAUCUUCGGAUGCAGAGGAGGCAGGCUUCGGUGGCGCGAUAGCGCCAACUUCCUCAACCUCCAAUGCAUCCCACCACAUGAUGAUGCCUGAAGAGUCUUGGUUUUUUG,0.933
20,GACCAAUCUGCCCUCAGAGCUCGAGAACAUCUUCAGAUGCAGAUGAGGCAGGCUUCGGUGGCGCGAUAGCGCCAACGUCCUCAACCUCCAAUGCAUCCCACCACAUGAUGAUGCAUGAAGAGCGUUGGUUUUUUG,-2.88
21,GACCAAUCUGCCCUCAGAGCUCGAGAACAUCUUCGGAUGCAGAGGAGGCAGGCUUCGGUGGCGCGAUAGCGCCAACGUCUUCAACCUCCAAUGCAUCCCAUCACAUGAUGAUGCCUGAAGCGCCUUGGUUUUUUG,1.19

row,Variant,polymerase ribozyme fitness (log ratio)
1,GACCAAUCUGCCCUCAGAUCUCGAGAACAUCUUCGGAUGCAGUGGAUGCAGGCUUCGGUGGCGCGAUAGCGCCAACGUCCUCAACCUCCAAUGCAUCCCACCACAUGAUGAAGCCUGAAAAGCCUUGGUUUUUUG,-2.08
2,GACUAAUCUGCCCACAGAGCUCGAGAACAUCUUCGGAUGCAGAGGAGGCAGGCUUCGGUGGCGCGAUAGCGCCAACGUCCUCAACCUCCAAUGCAUCCCACCACAUGAUGAUGCCUGAAGAGCCUUGGUUUUUUG,-2.88
3,GACCAAUCUGCCCUCAGAGCUCGAGAACAUGUUCGGAUGCAGAGGAAGCAGGCUUCGGUGGCGCGAUAGCGCCAACGUCGUCAACCUCCAAUGCAUCCCACCACAUGAUGAUGCUUGAAGAGCCUAGGUUUUUUG,-8
4,GACCAAUCUGCCCUCAGCGCUCGAGAACAUCUUAGGAUGCAGAGGAGGCAGGCUUCGGUGGCGCGAUAGCGCCAACGUCCUCAACCUCCAAUGCAUCCAACCACAUGAUGAUGCCUGAAGAGACUAGGUUUUUUG,-5.25
5,GACCAAUCUGCCCUCAGAGCUCGAGAACAUCUUCGGAUGCAGAGGAGGCAGGCUUCGGUGGCGCGAUAGCGCCAACGUCCUCAACCUCCAGUGCAUCCCACCACAUGAUGAUGCUUGAAGAGCCUUGGUUUUUUG,-1.36
6,GACCAAUUUGCCCUCAGAGCUCGAGAACAUCUUCGGAUGCAGAGGAGGCAGGCUUCGGUGACGCGAUAGCGCCAACGUCCUCACCCUCCAAUGCAUCCCACCACAUGAUGAUGCCUGAAGAGCCUUGGUUUUUUG,0.393
7,GACCAAUCUGCCCUCAGAGCUCGAGAACAUCUUCGAAUGCAGAGGAGGCAGGCUUCGGUGGCGCGAUAGCGGCAACGUCCUCAACCUCCAAUGCAUCCCACCACAUGAUGAUGCCUAAAGAGCCUUGGUUUUUUG,-3.71
8,GACCAAUCUGGCGUCAGAGCUCGAGAACAUCUUCGGAUGCAGAGGAGGCAGGCUUCGGUGGCGCGAUAGCGCCAACGUCCUCAACCUCCAAUGCAUCCCACCACAUGAUGCUGCCUGAAGGGCCUUGGUUUUUUG,0.62
9,GACCAUUAUGCCCUCAGAGCUCGAGAACAUCUUCGGAUGCAGAGGAGGCAGGCUUCGGUGGCGCGAUAGCGCCAACGUCCUCAACCUCCAAUGCAUCCCACCACAUGAUGAUGCCUGAAGAGCCUUGGUUUUUUG,0.618
10,GACCAAUUUGCCCUCAGAGCUCGAGAACAUCUUCGGAUGCAGAGGAGGCGGGCUUCGGUGGCGCGAUAGCGCCAACGACCUCAAACUCCAAUGCAUCCCACCACAUGAUGAUGCCUGAAGAGCCUUGGUUUUUUG,-0.938
11,GACCAAUCUGCUCUCAGAGCUCGAGAACAUCUUCGGAUGCAGAGGAGGCAGGCUUCGGUGGCACGAUAGCGCCAACGUCCUCAACCUCCAAUGCAUCCCACCACAUGAUGAUACCUGAAGAGCCUUGGUUUUUUG,-1.59
12,GACCAAUCUGCCCUCAGAGCUCGAGAACAUCUUCGGAUGCAGAGGAGGCAGGCUUCGGUGGCGCGAUAGCGUCAACGCCCUCAACCUCCAAUGCAUCCCACCACAUGAUGAUGCCUUAAGAACCUUGGUGUUUUG,-2.87
13,GACCAAUUUGCCCUCAGAGCUCGAGAACAUCUUCGGAUGCAGAGGUGGCAGGCUUCGGUGGCGCGAUAGUGCCAACGUCCUCAACCUCCAAUGCAUCCCACCACAUGAUGAUGCCUGAAGAUCCUUGGUUUUUUG,-0.612
14,GACCAAUCUGCCCUCAGAGCUCGAGAACAUCUUCGGAUGCAGAGGAGGCAGGCUUCGGUGGCGCGAUAUCGCCAACGUCCUCAACCUCCAAUGCAUCCUACCACAUGAUGAUGCCUGAAGAGCCUUGGUUUUUUG,-1.7
15,GACCAAUCUGCGCUCAGAGCUCGAGAACAUCUUCGGAUGCAGAGGAGGCAGGCUUCGGUGGCGCGAUAGCGCCAACGUACUCAACCUCCAAUGCAUCCCACCACAUGAUGAUGCCUGAAGAGCCUUGGUUUUUUG,-1.01
16,GACUAAUCUGCCCUCAGAGCUCGAGAACAUCUUCGGAUGCAGAGGAGGCAGGCUUCGGUGGCGCGAUAGCGCUAACGUCCUCAACCUCCAAUGCAUCCCACCACAUGAUGAUGCCUGAAGAGCCUUGGUUUUUUG,-0.492
17,GACCAAUCUGCCCUCAGAGUUCGAGAACAUCUUUGGAUGCAGAGGAGGCAGGCUUCGGUGGCGCGAUAGCGCCAACGUCCUCAACCUCCAAUGCAUCCCACCACAUGAUGAUGCCUGAAGAGCCUUGGUUUUUUG,-5.22
18,GACCAAUCUGCCUCCAGAGCUCGAGAACAUCUUCGGAUGCAGAGGAGUCAGGCUUCGGUGGCGCGAUAGCGCCAACGUCCUCAACCUCCAAUGCAUCCCACCACAUGAUGAUGCCUGAAGAGCCUUGGUUUUUUG,-3.25
19,GACCAAUCUGCCCUCAGAGCACGAGAACAUCUUCGGAUGCAGUGGAGGCAGGCUUCGGUGACGCGAUAGCGCUAACGUCCUCAACCUCCGAUGCAUCCCACCACAUGAUGAUGCCUGAAGAGCCUUGGUUUUUUG,-3.13
20,GACCAAUCUGCCCUCAGAGCUCGAGAACAUCUUCGGAUACAGAGGAGGCAGGCUUCGGUGGCGCGAUACCGCCAACGUCCUCAACCUCCAAUGCAUCCCACCACAUGAUGAUGCCUGAAGAGCCUUGGUUUUUUG,-0.611
21,GACCAAUCUGCCCUCAGAGCUCGAGAACAUCUUCGGAUGCAGAGGAGGCAGGCUUCGGUGGCUCGAUAGCGCCAACGUCCUCAACCUCCAAUGCAUCCCACCACAUGAUGAUGGCUUAAGAGCCUUGGUUUUUUG,-5.98
